Here are results for three substances from patent US20100092484A1.

For assay [1], the target named is human CD44 (on cells) (human) (UniProt P16070). The experiment in a line: cell-based or functional assay.
Assay [2] concerns the target human CD44-IgG1 fusion protein (extracellular domain of human CD44 fused to human IgG1) (human). The experiment in a line: ELISA: antibody pre-mixed with human CD44-Ig (0.6 µg/ml); inhibition of CD44-Ig binding to plate-coated hyaluronic acid (HA).
Assay [3] has as its target lymphatic vessel endothelial hyaluronan receptor 1 protein (LYVE-1) (R&D, Cat. No. 2089-Ly) (UniProt Q9Y5Y7). The experiment in a line: ELISA on plate-coated LYVE-1 (50 ng), anti-goat IgG-HRP detection. A general note: In an ELISA, binding on a coated surface is turned into a signal by an enzyme label.
The target of assay [4] is cynomolgus CD44 (on cells) (cynomolgus monkey). The experiment in a line: cell-based or functional assay.
Chain of cynomolgus CD44 (on cells) (cynomolgus monkey) (P16070 other isoform, or with tags, fused parts or gaps limits assumed): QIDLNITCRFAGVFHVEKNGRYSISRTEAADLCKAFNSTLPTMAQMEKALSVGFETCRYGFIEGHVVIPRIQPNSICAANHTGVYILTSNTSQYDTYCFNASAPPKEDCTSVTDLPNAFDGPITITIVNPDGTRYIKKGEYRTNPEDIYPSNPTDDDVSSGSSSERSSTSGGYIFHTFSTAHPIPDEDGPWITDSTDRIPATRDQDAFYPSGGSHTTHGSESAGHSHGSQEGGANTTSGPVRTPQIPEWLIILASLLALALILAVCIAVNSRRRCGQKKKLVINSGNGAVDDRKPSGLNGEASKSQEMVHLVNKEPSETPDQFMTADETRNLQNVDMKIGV

Chain of human CD44 (on cells) (human) (P16070 other isoform, or with tags, fused parts or gaps limits assumed): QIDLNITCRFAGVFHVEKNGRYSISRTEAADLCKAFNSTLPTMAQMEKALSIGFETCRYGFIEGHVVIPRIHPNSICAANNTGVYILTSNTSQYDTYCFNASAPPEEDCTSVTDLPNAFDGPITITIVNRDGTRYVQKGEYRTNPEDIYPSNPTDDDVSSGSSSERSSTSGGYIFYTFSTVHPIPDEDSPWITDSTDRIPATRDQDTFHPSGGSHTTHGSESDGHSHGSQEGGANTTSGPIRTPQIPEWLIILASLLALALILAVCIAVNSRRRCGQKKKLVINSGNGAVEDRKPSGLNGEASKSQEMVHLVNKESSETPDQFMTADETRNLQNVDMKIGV
Chain of human CD44-IgG1 fusion protein (extracellular domain of human CD44 fused to human IgG1) (human) (chain, as listed by the source limits assumed): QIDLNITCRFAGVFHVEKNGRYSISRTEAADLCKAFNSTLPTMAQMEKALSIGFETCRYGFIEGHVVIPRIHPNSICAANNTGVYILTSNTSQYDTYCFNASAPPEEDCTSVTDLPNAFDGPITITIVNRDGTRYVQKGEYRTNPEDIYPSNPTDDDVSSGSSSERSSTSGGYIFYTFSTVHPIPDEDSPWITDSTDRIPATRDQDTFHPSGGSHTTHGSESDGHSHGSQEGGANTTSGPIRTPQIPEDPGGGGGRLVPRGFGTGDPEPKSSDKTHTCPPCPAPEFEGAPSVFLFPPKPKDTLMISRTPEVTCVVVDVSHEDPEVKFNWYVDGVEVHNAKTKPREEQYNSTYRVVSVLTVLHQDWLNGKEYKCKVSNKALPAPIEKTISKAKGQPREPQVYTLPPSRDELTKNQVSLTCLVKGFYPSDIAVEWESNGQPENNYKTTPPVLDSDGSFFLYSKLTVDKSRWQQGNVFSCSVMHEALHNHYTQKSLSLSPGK
Chain of lymphatic vessel endothelial hyaluronan receptor 1 protein (LYVE-1) (R&D, Cat. No. 2089-Ly) (Q9Y5Y7 24-232 limits assumed): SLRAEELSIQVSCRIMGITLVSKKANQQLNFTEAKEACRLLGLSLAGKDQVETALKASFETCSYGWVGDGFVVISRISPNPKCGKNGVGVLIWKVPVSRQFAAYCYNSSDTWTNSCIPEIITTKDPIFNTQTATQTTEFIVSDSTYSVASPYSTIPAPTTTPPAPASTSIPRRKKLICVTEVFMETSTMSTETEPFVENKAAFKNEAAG

The IC50 is the midpoint of a concentration-inhibition curve. Read a high IC50 as weaker potency in that assay. Consider “anti-CD44 antibody 515 (BD Bioscience, Cat. No. 550990)”, for which the IC50 of IL-1β release from purified human PBMC stimulated by HA in assay [1] turned out to be 1.46 µg/mL. In addition, the IC50 in assay [2] came out at 0.32 µg/mL.
Broadly, the EC50 is the concentration needed to bring the measured effect to its halfway point. Read a low EC50 as higher potency in that assay. Take “anti-LYVE-1 antibody (R&D, Cat. No. AF 2089)”: the EC50 in assay [3] turned out to be 0.1 µg/mL.
As for “anti-CD44 antibody IM7 (BD Bioscience, Cat. No. 553134)”, in assay [4], the IC50 of reduction of CD44 surface expression on cynomolgus peripheral CD3+ T cells (FACS) amounted to 9.9 µg/mL. In assay [1], this substance came in with an IC50 of IL-1β release from purified human PBMC stimulated by HA of 1.62 µg/mL and an IC50 of reduction of CD44 surface expression on human peripheral CD3+ T cells (FACS) of 1.5 µg/mL. In assay [2], this substance showed an IC50 of 1.85 µg/mL.
